Legend:
[1] = biological target: T1, Hepatocyte Growth Factor Receptor (HGFR, Met receptor), full length, endogenous in human tumor cells (GTL-16) (human, UniProt P08581 25-1390); assay: immunoprecipitation of Met receptor from cell lysates, Western blot with anti-Met C-terminal antibody (FIG. 11A)
T1 construct: whole, on cells; The mature receptor is a disulfide-linked alpha/beta heterodimer cleaved from one precursor; also called HGF receptor
Experimental: FIG. 11: The recombinant AntiMET-R binds with high affinity the extracellular domain of Met. (A) Western blot analysis of cell lysates containing the Met Receptor immunoprecipitated with the AntiMET-R derived from different sources (hybridoma or genetically modified carcinoma cell line). The immunoprecipitation was performed incubating Seph. Prot. G with cell culture supernatants from 1: Hybridoma producing unrelated MAb; 2 Hybridoma producing AntiMET-R MAb; 3: MDA-MB 435 cells infected with lentiviral vector carrying cDNAs for AntiMET-R MAb 4: MDA-MB 435 cells not infected. Samples were subjected to SDS-PAGE under reducing condition and the corresponding filters were probed with an anti-Met antibody directed against the c-Terminal tail of the receptor. (B) Binding assay of the AntiMET-R and the recombinant AntiMET-R to the extracellular domain of the Met Receptor. 96 wells plate coated with purified MET extracellular domain fused to the Fc domain derived from Human Ig (100 ng/well) was incubated with increasing concentrations of purified AntiMET-R or recombinant AntiMET-R (from 0 to 5.5 nM). […] To control the specificity of binding we performed the same assay using wells coated with Fc-Ron (a chimera protein generated fusing the Fc domain of Human Ig to the extracellular domain of the Ron receptor, a protein belonging to the Met receptor family).

[2] = biological target: T1, Hepatocyte Growth Factor Receptor …; assay: flow cytometry on GTL-16 cells (50 ug/ml antibody) and immunofluorescence on fixed GTL-16 cells (2.5 ug/ml)
Experimental: For Flow cytometry analysis, 10⁵ GTL-16 cells were detached with PBS-EDTA 0.025%, washed with PBS and incubated with 50 μg/ml of antiMet-R antibody or the same amount of isotype control mouse Ig for 15′ RT. After 2 washes with PBS, the cells were incubated with 15 μg/ml of FITC conjugated Goat anti-mouse Ig (Jackson Immunoresearch laboratories) for 15′ RT. Cells were than washed, re-suspended in PBS-5% BSA and analysed by flow cytometry (Becton Dickinson, Mountain View, Calif.). GTL-16 cells were fixed in methanol:aceton (3:1) for 5′ on ice then blocked with 2% goat serum in PBS for 30′ at RT. […] Analysis of the samples was performed with a fluorescence microscope (DM-IRB, Leica Microsystems).
GTL-16 cells, a human gastric carcinoma cell line, were incubated with the AntiMET-R antibody. […] Infact the mean of fluorescence intensity in cells labelled with the antiMet-R antibody was increased respect to ctrl cells (FIG. 20, panel A). GTL-16 cells were also incubated, after fixation, with the antiMet-R antibody to perform an immunofluoresce analysis.

[3] = biological target: T2, SEMA PSI (aminoacids 1-562), truncated form of Decoy Met containing the SEMA domain and the PSI region, myc- … (human, UniProt P08581 25-562); assay: immunoprecipitation from conditioned medium, Western blot with anti-myc
T2 construct: range 25-562; also called myc-tagged SEMA PSI
Text: (§1) FIG. 18: AntiMET-R specifically recognizes an epitope located in the IPTs region. Conditioned media of MDA-MB-435 cells transduced with lentiviral vector particles encoding for myc-tagged Decoy Met, myc-tagged SEMA PSI and myc-tagged PSI IPT1-4 were immunoprecipitated with the antiMET-R antibody and detected by Western blot using a biotinylated anti-myc antibody (right panel). Equal amounts of conditioned media were loaded as a control for protein expression (left panel). CTRL: conditioned medium of MDA-MB-435 cells transduced with an empty lentiviral vector. Decoy Met: conditioned medium of MDA-MB-435 cells transduced with a lentiviral vector expressing the entire HGFR extracellular domain. PSI-IPT: conditioned medium of MDA-MB-435 cells transduced with a lentiviral vector expressing PSI, IPT-1, IPT-2, IPT-3, IPT-4 domains of the HGFR. SEMA-PSI: conditioned medium of MDA-MB-435 cells transduced with a lentiviral vector expressing Sema and PSI domains of the HGFR. On the right molecular weight in KD are shown.
(§2) Conditioned media of MDA-MB-435 cells transduced with myc-tagged Decoy Met, SEMA PSI and PSI IPT were immunoprecipitated with the AntiMET-R antibody and detected by Western blot using a biotinylated anti-myc antibody (FIG. 18, right panel). […]

[4] = biological target: T3, Decoy Met (aminoacids 1-932), soluble recombinant entire extracellular region of human Met, myc- and … (human, UniProt P08581 25-932); assay: as above
T3 construct: range 25-932; Numbering follows GenBank X54559; also called myc-tagged Decoy Met; Met ectodomain
Text: as §1, §2

T1 sequence (P08581 25-1390): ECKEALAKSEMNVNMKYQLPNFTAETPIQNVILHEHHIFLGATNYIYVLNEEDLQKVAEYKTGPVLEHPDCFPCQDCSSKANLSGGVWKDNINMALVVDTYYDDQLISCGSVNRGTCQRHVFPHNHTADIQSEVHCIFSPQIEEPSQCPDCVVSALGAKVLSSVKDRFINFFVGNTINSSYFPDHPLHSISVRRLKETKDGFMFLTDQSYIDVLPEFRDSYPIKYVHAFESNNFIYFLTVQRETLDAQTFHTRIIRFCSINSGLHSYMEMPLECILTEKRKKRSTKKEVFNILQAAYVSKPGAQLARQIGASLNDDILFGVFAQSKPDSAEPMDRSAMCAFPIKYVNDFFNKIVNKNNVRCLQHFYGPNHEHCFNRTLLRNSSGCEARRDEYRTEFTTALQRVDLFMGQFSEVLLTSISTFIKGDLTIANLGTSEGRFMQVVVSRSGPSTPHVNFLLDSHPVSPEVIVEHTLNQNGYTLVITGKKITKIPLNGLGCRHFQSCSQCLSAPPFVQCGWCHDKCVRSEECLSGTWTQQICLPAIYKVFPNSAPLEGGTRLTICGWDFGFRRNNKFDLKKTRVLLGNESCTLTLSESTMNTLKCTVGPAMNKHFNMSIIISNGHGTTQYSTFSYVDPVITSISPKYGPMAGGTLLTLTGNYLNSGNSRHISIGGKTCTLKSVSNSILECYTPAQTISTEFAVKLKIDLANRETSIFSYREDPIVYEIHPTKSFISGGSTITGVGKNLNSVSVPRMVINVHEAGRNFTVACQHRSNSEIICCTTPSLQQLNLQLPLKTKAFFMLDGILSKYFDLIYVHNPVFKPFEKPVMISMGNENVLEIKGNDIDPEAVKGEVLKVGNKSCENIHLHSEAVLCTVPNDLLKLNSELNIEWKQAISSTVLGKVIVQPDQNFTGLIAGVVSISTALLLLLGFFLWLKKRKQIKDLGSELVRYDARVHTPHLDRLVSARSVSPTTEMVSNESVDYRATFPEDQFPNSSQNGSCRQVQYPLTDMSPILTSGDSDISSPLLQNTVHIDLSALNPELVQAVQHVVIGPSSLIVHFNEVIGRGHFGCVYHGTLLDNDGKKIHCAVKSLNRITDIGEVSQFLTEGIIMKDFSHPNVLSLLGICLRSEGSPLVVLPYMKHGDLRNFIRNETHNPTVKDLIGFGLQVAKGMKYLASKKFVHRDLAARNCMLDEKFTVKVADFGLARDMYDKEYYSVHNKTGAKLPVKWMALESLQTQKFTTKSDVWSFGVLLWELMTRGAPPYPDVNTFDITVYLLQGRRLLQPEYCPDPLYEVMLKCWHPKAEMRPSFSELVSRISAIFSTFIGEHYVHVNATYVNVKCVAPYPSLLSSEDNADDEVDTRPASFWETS
T3 sequence (P08581 25-932 limits assumed): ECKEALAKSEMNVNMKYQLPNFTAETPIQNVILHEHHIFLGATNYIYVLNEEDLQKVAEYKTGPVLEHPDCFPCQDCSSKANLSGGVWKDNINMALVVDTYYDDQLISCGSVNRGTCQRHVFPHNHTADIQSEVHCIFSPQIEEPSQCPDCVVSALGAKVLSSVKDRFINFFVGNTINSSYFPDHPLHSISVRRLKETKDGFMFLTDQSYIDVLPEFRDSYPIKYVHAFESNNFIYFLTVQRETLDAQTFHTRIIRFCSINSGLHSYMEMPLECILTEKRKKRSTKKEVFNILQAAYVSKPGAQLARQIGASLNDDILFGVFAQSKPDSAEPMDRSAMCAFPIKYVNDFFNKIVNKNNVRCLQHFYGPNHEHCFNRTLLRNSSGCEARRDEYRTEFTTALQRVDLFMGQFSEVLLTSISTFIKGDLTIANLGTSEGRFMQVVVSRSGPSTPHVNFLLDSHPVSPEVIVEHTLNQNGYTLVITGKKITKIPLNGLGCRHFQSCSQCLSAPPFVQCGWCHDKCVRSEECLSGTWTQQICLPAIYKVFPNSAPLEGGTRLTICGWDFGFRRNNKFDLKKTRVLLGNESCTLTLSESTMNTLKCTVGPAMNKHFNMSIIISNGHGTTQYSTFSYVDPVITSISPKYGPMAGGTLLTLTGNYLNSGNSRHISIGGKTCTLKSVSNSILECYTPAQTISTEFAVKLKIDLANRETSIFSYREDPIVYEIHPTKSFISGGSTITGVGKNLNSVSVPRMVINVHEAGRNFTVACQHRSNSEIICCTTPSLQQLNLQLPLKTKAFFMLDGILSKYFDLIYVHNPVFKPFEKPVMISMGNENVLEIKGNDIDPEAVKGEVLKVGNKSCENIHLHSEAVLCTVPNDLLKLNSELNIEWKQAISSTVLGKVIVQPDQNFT
T2 sequence (P08581 25-562 limits assumed): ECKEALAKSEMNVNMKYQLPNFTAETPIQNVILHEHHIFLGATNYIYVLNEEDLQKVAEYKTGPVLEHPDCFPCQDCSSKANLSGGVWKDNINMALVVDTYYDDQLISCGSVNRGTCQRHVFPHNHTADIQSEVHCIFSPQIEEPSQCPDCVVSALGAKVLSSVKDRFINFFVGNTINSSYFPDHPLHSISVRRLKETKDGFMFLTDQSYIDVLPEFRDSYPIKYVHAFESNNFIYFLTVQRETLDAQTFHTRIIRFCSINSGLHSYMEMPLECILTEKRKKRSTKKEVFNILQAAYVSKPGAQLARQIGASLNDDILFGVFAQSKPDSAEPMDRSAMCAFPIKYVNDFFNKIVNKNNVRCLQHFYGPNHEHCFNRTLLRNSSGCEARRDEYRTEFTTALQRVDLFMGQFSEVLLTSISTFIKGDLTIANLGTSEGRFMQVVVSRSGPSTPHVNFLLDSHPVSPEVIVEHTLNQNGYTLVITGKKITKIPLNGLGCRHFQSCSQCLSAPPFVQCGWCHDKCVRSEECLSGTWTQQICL

Binder | binding result [1] | binding result [2] | binding result [3] | binding result [4]
recombinant AntiMET-R produced by carcinoma cell lines transduced with the bi-directional lentiviral vector carrying AntiMET-R cDNAs (antibody, mouse IgG2a, kappa, V domains shown) VH: QVQLQQPGTELVKPGASVKLSCKASGYTFTSYWIHWVKQRPGQGLEWIGEINPSSGRTNYNEKFKNKVTVTVDKSSTTAYMQLSNLTSEDSAVYYCASRGYWGQGTTLTVSS VL: DIVLTQSPASLAVSLGQRATISCKASQSVDYDGGSYMSWFQQRPGQPPKLLISAASNLESGIPARFSGSGSGTDFTLNIHPVEEEDVATYYCQQSYEDPLTFGAGTKLELKR | binds |  |  | 
AntiMET-R, anti-Met monoclonal antibody produced by the hybridoma cell line ICLC PD 05006 (antibody, mouse IgG2a, kappa, V domains shown, Mouse monoclonal antibody from a hybridoma; They may include leader peptides; also called purified AntiMET-R) VH: QVQLQQPGTELVKPGASVKLSCKASGYTFTSYWIHWVKQRPGQGLEWIGEINPSSGRTNYNEKFKNKVTVTVDKSSTTAYMQLSNLTSEDSAVYYCASRGYWGQGTTLTVSS VL: DIVLTQSPASLAVSLGQRATISCKASQSVDYDGGSYMSWFQQRPGQPPKLLISAASNLESGIPARFSGSGSGTDFTLNIHPVEEEDVATYYCQQSYEDPLTFGAGTKLELKR |  | binds | no binding | binds

Reference: patent US20090285807A1 (METHERESIS TRANSLATIONAL RESEARCH, published 2009)
